Experiments:
[1] = system: Saccharomyces cerevisiae mevalonate kinase; assay: Inhibition of mevalonate kinase activity by the feedback inhibitor FPP: feedback resistance; assay type: biochemical; details: 1 μM FPP; % resistance=100·((d/c)−(b/a))/(1−(b/a)) relative to wild-type
Procedure: “Feedback resistance” as used herein may be any increase in resistance to “feedback inhibition” (as defined above). Feedback resistance can be analyzed in different ways known to those skilled in the art. An appropriate example of such an analysis is shortly described herein: mevalonate kinase activity is measured in an activity assay at non-saturating concentrations of for instance ATP (or of another phosphate donor) and mevalonate (or mevalonate analogue), i.e., at for instance ATP (or phosphate donor) and mevalonate (or mevalonate analogue) concentrations around which the reaction rate is sensitive to changes of these substrate concentrations, e.g., at concentrations around the respective Km values of the enzyme under investigation for these substrates. The activities of both wild-type mevalonate kinase and of a variant/mutant of this enzyme are measured under otherwise identical conditions both in the absence and presence of a relevant concentration of a feedback inhibitor, i.e., at a concentration of feedback inhibitor affording significant inhibition of the wild-type mevalonate kinase. If the extent of inhibition (e.g., % inhibition) by the feedback inhibitor is lower for the mutant than for the wild-type enzyme, then the mutant is feedback resistant in the context of the present patent application. Once a feedback resistant variant/mutant has been identified, the same procedure as described above may be applied to identify further improved mutants, i.e., mutants that are even more feedback resistant. Feedback resistance (%) is calculated as follows: if (a) and (b) are the measured mevalonate kinase activities of the wild-type enzyme in the absence and presence, respectively, of the feedback inhibitor (e.g., FPP), and if (c) and (d) are the measured mevalonate kinase activities of the mutant enzyme in the absence and presence, respectively, of the same feedback inhibitor, then % feedback resistance is: % resistance=100·((d/c)−(b/a))/(1−(b/a))
(§1) For preparing mevalonate as substrate, 130 mg of DL-mevalonate lactone (FLUKA Chemie AG, Buchs, Switzerland) were dissolved in 5.5 ml of 0.2 M KOH and incubated for 15 min at 50° C. The solution was then adjusted to pH 7.0 by addition of 0.1 M HCl at room temperature (RT). Except if stated otherwise, the assay mixture consisted of 100 mM K2BPO/KH2PO4 (pH 7.0), 1 mM ATP, 2 mM MgCl2, 1 mM mevalonate, 0.5 mM phosphoenolpyruvate (PEP), 0.32 mM NADH, 20 U/ml pyruvate kinase and 27 U/ml lactate dehydrogenase (Sigma-Aldrich, St. Louis, Mo., USA). Inhibition was tested by adding 1 μM FPP.
(§2) Purification of His6-tagged mevalonate kinase and of His6-tagged mevalonate kinase mutant enzymes was done with Ni-NTA chromatography using the QIAexpress system/reagents of Qiagen. Upon addition of purified (His6-tagged) mevalonate kinase, enzymatic reaction reflected by consumption of NADH was followed by photometric measurement at 340 nm. One unit (1 U) of mevalonate kinase activity catalyzes the phosphorylation of 1 μmol of mevalonate per min.
(§3) Preparation of Mevalonate and Activity Measurement was Exactly Performed as Described in Example 1. 1 μM FPP was used for inhibition assays performed with the Saccharomyces cerevisiae mevalonate kinase wild-type enzyme and its mutants.
Feedback resistance (%) was calculated according to the following formula: % resistance=100·((d/c)−(b/a))/(1−(b/a)) wherein (a) and (b) refer to the measured mevalonate kinase activities of the wild-type enzyme in the absence and presence, respectively, and (c) and (d) refer to the measured mevalonate kinase activities of the mutant enzyme in the absence and presence, respectively, of FPP. The results are shown in Tab. 1, wherein WT represents the non-mutated mevalonate kinase containing a His6-tag (SEQ ID NO:3).

[2] = system: Saccharomyces cerevisiae mevalonate kinase; assay: Mevalonate kinase activity assay (NADH consumption, photometric at 340 nm): specific activity; assay type: biochemical; details: purified His6-tagged enzyme; WT = non-mutated His6-tagged mevalonate kinase
From the text: Methods for measuring specific activity are known to the person skilled in the art. The specific activity may for instance be determined via measuring the consumption of NADH. Suitable conditions for such measurement may be those as e.g. outlined in Example 1 except that, typically, saturating substrate concentrations are used or, in the case of enzyme inhibition at high substrate concentrations, at substrate concentrations that provide maximal activity under the particular experimental conditions.
as §1, §2, §3

B1: WT: non-mutated Saccharomyces cerevisiae mevalonate kinase containing a His6-tag (SEQ ID NO:3) (protein, listed as Saccharomyces cerevisiae)
chain: MRGSHHHHHHGSACSLPFLTSAPGKVIIFGEHSAVYNKPAVAASVSALRTYLLISESSAPDTIELDFPDISFNHKWSINDFNAITEDQVNSQKLAKAQQATDGLSQELVSLLDPLLAQLSESFHYHAAFCFLYMFVCLCPHAKNIKFSLKSTLPIGAGLGSSASISVSLALAMAYLGGLIGSNDLEKLSENDKHIVNQWAFIGEKCIHGTPSGIDNAVATYGNALLFEKDSHNGTINTNNFKFLDDFPAIPMILTYTRIPRSTKDLVARVRVLVTEKFPEVMKPILDAMGECALQGLEIMTKLSKCKGTDDEAVETNNELYEQLLELIRINHGLLVSIGVSHPGLELIKNLSDDLRIGSTKLTGAGGGGCSLTLLRRDITQEQIDSFKKKLQDDFSYETFETDLGGTGCCLLSAKNLNKDLKIKSLVFQLFENKTTTKQQIDDLLLPGNTNLPWTS
modifications: His6-tag
With B1 the “Feedback resistance (%)” value [1] was 0% and the “Specific activity (% of wild-type)” value [2] was 100 % of wild-type.

B2: F59S: Saccharomyces cerevisiae mevalonate kinase mutant with substitution F59S (protein, listed as Saccharomyces cerevisiae)
chain: MSLPFLTSAPGKVIIFGEHSAVYNKPAVAASVSALRTYLLISESSAPDTIELDFPDISSNHKWSINDFNAITEDQVNSQKLAKAQQATDGLSQELVSLLDPLLAQLSESFHYHAAFCFLYMFVCLCPHAKNIKFSLKSTLPIGAGLGSSASISVSLALAMAYLGGLIGSNDLEKLSENDKHIVNQWAFIGEKCIHGTPSGIDNAVATYGNALLFEKDSHNGTINTNNFKFLDDFPAIPMILTYTRIPRSTKDLVARVRVLVTEKFPEVMKPILDAMGECALQGLEIMTKLSKCKGTDDEAVETNNELYEQLLELIRINHGLLVSIGVSHPGLELIKNLSDDLRIGSTKLTGAGGGGCSLTLLRRDITQEQIDSFKKKLQDDFSYETFETDLGGTGCCLLSAKNLNKDLKIKSLVFQLFENKTTTKQQIDDLLLPGNTNLPWTS
B2 was tested, and the “Feedback resistance (%)” value [1] was 56% and the “Specific activity (% of wild-type)” value [2] was 31 % of wild-type.

B3: K83E, S249P: Saccharomyces cerevisiae mevalonate kinase mutant with substitutions K83E and S249P (protein, listed as Saccharomyces cerevisiae)
chain: MSLPFLTSAPGKVIIFGEHSAVYNKPAVAASVSALRTYLLISESSAPDTIELDFPDISFNHKWSINDFNAITEDQVNSQKLAEAQQATDGLSQELVSLLDPLLAQLSESFHYHAAFCFLYMFVCLCPHAKNIKFSLKSTLPIGAGLGSSASISVSLALAMAYLGGLIGSNDLEKLSENDKHIVNQWAFIGEKCIHGTPSGIDNAVATYGNALLFEKDSHNGTINTNNFKFLDDFPAIPMILTYTRIPRPTKDLVARVRVLVTEKFPEVMKPILDAMGECALQGLEIMTKLSKCKGTDDEAVETNNELYEQLLELIRINHGLLVSIGVSHPGLELIKNLSDDLRIGSTKLTGAGGGGCSLTLLRRDITQEQIDSFKKKLQDDFSYETFETDLGGTGCCLLSAKNLNKDLKIKSLVFQLFENKTTTKQQIDDLLLPGNTNLPWTS
For B3, the “Feedback resistance (%)” value [1] was 37% and the “Specific activity (% of wild-type)” value [2] was 78 % of wild-type.

B4: I142N, L158S, L231I, T367S: Saccharomyces cerevisiae mevalonate kinase mutant with substitutions I142N, L158S, L231I and T367S (protein, listed as Saccharomyces cerevisiae)
chain: MSLPFLTSAPGKVIIFGEHSAVYNKPAVAASVSALRTYLLISESSAPDTIELDFPDISFNHKWSINDFNAITEDQVNSQKLAKAQQATDGLSQELVSLLDPLLAQLSESFHYHAAFCFLYMFVCLCPHAKNIKFSLKSTLPNGAGLGSSASISVSLASAMAYLGGLIGSNDLEKLSENDKHIVNQWAFIGEKCIHGTPSGIDNAVATYGNALLFEKDSHNGTINTNNFKFIDDFPAIPMILTYTRIPRSTKDLVARVRVLVTEKFPEVMKPILDAMGECALQGLEIMTKLSKCKGTDDEAVETNNELYEQLLELIRINHGLLVSIGVSHPGLELIKNLSDDLRIGSTKLTGAGGGGCSLTLLRRDISQEQIDSFKKKLQDDFSYETFETDLGGTGCCLLSAKNLNKDLKIKSLVFQLFENKTTTKQQIDDLLLPGNTNLPWTS
For B4, the “Feedback resistance (%)” value [1] was 58% and the “Specific activity (% of wild-type)” value [2] was 61 % of wild-type.

B5: L106P, S218P: Saccharomyces cerevisiae mevalonate kinase mutant with substitutions L106P and S218P (protein, listed as Saccharomyces cerevisiae)
chain: MSLPFLTSAPGKVIIFGEHSAVYNKPAVAASVSALRTYLLISESSAPDTIELDFPDISFNHKWSINDFNAITEDQVNSQKLAKAQQATDGLSQELVSLLDPLLAQPSESFHYHAAFCFLYMFVCLCPHAKNIKFSLKSTLPIGAGLGSSASISVSLALAMAYLGGLIGSNDLEKLSENDKHIVNQWAFIGEKCIHGTPSGIDNAVATYGNALLFEKDPHNGTINTNNFKFLDDFPAIPMILTYTRIPRSTKDLVARVRVLVTEKFPEVMKPILDAMGECALQGLEIMTKLSKCKGTDDEAVETNNELYEQLLELIRINHGLLVSIGVSHPGLELIKNLSDDLRIGSTKLTGAGGGGCSLTLLRRDITQEQIDSFKKKLQDDFSYETFETDLGGTGCCLLSAKNLNKDLKIKSLVFQLFENKTTTKQQIDDLLLPGNTNLPWTS
B5 was tested, and the “Feedback resistance (%)” value [1] was 24% and the “Specific activity (% of wild-type)” value [2] was 42 % of wild-type.

B6: P55L, C117S: Saccharomyces cerevisiae mevalonate kinase mutant with substitutions P55L and C117S (protein, listed as Saccharomyces cerevisiae)
chain: MSLPFLTSAPGKVIIFGEHSAVYNKPAVAASVSALRTYLLISESSAPDTIELDFLDISFNHKWSINDFNAITEDQVNSQKLAKAQQATDGLSQELVSLLDPLLAQLSESFHYHAAFSFLYMFVCLCPHAKNIKFSLKSTLPIGAGLGSSASISVSLALAMAYLGGLIGSNDLEKLSENDKHIVNQWAFIGEKCIHGTPSGIDNAVATYGNALLFEKDSHNGTINTNNFKFLDDFPAIPMILTYTRIPRSTKDLVARVRVLVTEKFPEVMKPILDAMGECALQGLEIMTKLSKCKGTDDEAVETNNELYEQLLELIRINHGLLVSIGVSHPGLELIKNLSDDLRIGSTKLTGAGGGGCSLTLLRRDITQEQIDSFKKKLQDDFSYETFETDLGGTGCCLLSAKNLNKDLKIKSLVFQLFENKTTTKQQIDDLLLPGNTNLPWTS
For B6, the “Feedback resistance (%)” value [1] was 58% and the “Specific activity (% of wild-type)” value [2] was 60 % of wild-type.

B7: H111N, K375N: Saccharomyces cerevisiae mevalonate kinase mutant with substitutions H111N and K375N (protein, listed as Saccharomyces cerevisiae)
chain: MSLPFLTSAPGKVIIFGEHSAVYNKPAVAASVSALRTYLLISESSAPDTIELDFPDISFNHKWSINDFNAITEDQVNSQKLAKAQQATDGLSQELVSLLDPLLAQLSESFNYHAAFCFLYMFVCLCPHAKNIKFSLKSTLPIGAGLGSSASISVSLALAMAYLGGLIGSNDLEKLSENDKHIVNQWAFIGEKCIHGTPSGIDNAVATYGNALLFEKDSHNGTINTNNFKFLDDFPAIPMILTYTRIPRSTKDLVARVRVLVTEKFPEVMKPILDAMGECALQGLEIMTKLSKCKGTDDEAVETNNELYEQLLELIRINHGLLVSIGVSHPGLELIKNLSDDLRIGSTKLTGAGGGGCSLTLLRRDITQEQIDSFNKKLQDDFSYETFETDLGGTGCCLLSAKNLNKDLKIKSLVFQLFENKTTTKQQIDDLLLPGNTNLPWTS
For B7, the “Feedback resistance (%)” value [1] was 65% and the “Specific activity (% of wild-type)” value [2] was 87 % of wild-type.

Reference: US8338155B2, “Modified mevalonate kinase with reduced feedback inhibition” (DSM IP Assets B.V., priority 2004, dated 2012)
